Test results as given in publication doi:10.1101/674218 (bioRxiv, 2019).

B2: recombinant murine cold-inducible RNA-binding protein, His-tagged (rmCIRP-his) (natural protein, mouse, UniProt P60824 1-172, looked up)
chain: MASDEGKLFVGGLSFDTNEQALEQVFSKYGQISEVVVVKDRETQRSRGFGFVTFENIDDAKDAMMAMNGKSVDGRQIRVDQAGKSSDNRSRGYRGGSAGGRGFFRGGRSRGRGFSRGGGDRGYGGGRFESRSGGYGGSRDYYASRSQGGSYGYRSSGGSYRDSYDSYATHNE

Legend:
[1] = target: T1, recombinant murine cold-inducible RNA-binding protein, His-tagged (rmCIRP-his) (mouse), P60824; experiment: SPR; conditions: remark: other sources report otherwise
T1 chain: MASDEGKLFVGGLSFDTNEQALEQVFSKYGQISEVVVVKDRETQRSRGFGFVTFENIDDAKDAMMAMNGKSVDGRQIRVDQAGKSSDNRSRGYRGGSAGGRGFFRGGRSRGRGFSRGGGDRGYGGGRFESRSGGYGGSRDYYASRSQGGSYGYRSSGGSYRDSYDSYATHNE

[2] = target: T2, triggering receptor expressed on myeloid cells-1 (TREM-1) on RAW264.7 macrophages (mouse (endogenous in RAW264.7), UniProt Q9JKE2 21-230); experiment: FRET or BRET
T2 sequence (looked up): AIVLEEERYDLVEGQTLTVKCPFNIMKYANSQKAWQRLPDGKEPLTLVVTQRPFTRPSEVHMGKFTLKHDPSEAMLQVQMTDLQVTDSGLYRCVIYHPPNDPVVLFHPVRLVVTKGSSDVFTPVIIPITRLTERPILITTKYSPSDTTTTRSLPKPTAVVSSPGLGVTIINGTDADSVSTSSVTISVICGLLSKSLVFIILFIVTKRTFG

[3] = target: T3, recombinant mouse TREM-1-Fc Chimera (mouse, UniProt Q9JKE2 21-202); experiment: SPR
T3 sequence (looked up): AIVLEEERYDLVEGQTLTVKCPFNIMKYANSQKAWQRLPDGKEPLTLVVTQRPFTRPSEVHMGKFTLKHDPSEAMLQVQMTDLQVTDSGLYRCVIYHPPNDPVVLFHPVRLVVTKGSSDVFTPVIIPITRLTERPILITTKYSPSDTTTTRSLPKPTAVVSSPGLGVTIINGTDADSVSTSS

[4] = target: B2; experiment: SPR

B1: recombinant mouse TREM-1-Fc Chimera, Q9JKE2 21-202 (Fc fusion)
chain: AIVLEEERYDLVEGQTLTVKCPFNIMKYANSQKAWQRLPDGKEPLTLVVTQRPFTRPSEVHMGKFTLKHDPSEAMLQVQMTDLQVTDSGLYRCVIYHPPNDPVVLFHPVRLVVTKGSSDVFTPVIIPITRLTERPILITTKYSPSDTTTTRSLPKPTAVVSSPGLGVTIINGTDADSVSTSS
[1]
  Kd: 0.117 µM

## B2
[2]
  fold increase in FRET units over the negative control CD11b: ~7 fold

B3: M3, 7-aa peptide derived from CIRP (peptide)
peptide: RGFFRGG
[3]
  Kd: 35.2 µM

B4: LP17, 17 amino acid peptide taken from TREM-1 (peptide)
peptide: LQVTDSGLYRCVIYHPP
[4]
  Kd: 48 µM
